Legend:
[1] = target: MS2 bacteriophage coat protein (Bacteriophage MS2) (UniProt P03612); conditions: likely CITED; stated Kd for cognate site
[2] = target: hnRNP A1/A2 (Homo sapiens) (UniProt P09651+P22626); conditions: apparent Kd, likely CITED; stated for A1 and A2; excess TS10 abolishes ABS stimulation in HeLa extract
Chain of hnRNP A1/A2 (Homo sapiens) (P09651 whole entry, chain 1 of 2): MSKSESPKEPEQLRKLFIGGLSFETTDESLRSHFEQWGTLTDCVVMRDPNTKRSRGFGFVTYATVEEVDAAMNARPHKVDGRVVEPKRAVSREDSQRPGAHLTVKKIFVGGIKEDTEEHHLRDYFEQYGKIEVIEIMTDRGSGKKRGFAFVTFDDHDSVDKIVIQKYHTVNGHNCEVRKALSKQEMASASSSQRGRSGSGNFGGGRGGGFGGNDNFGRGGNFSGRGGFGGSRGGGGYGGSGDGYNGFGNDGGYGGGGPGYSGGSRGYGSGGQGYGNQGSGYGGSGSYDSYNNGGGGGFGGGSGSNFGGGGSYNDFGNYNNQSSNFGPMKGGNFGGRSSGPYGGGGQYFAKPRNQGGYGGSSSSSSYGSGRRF
Chain of hnRNP A1/A2 (Homo sapiens) (P22626 whole entry, chain 2 of 2): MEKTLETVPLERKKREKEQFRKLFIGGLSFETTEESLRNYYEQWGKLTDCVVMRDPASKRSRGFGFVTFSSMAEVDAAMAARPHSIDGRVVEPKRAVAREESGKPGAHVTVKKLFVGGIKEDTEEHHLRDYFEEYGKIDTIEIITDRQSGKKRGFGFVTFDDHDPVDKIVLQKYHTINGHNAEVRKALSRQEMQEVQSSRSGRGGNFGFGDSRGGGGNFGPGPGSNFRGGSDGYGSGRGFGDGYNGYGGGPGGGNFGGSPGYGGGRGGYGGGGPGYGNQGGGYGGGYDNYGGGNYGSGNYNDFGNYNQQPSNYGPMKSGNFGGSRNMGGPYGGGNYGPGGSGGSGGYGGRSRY

Chain of MS2 bacteriophage coat protein (Bacteriophage MS2) (P03612 2-130): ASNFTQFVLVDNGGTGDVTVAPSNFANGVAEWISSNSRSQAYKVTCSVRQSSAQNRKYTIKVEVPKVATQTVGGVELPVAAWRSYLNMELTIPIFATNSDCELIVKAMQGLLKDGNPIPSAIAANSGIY

Row | Substance | Kd [1] [nM] | Kd [2] [nM]
1 | MS2 stem-loop binding site in C5 pre-mRNA (position -26) | 1 | –
2 | TS10 telomeric DNA oligo (60 nt, nine A1 binding sites) | – | < 5
